Where a chain is given by its changes, count along the chain named. Several values for one entry are separate records, joined by “and”; a condition that tells them apart may be missing. Equal entries are not always repeated.

The target of assay [1] is T1, human CD3 on cells (Jurkat cells, human T cells) (human, UniProt P07766 23-207).
T1 construct: whole, on cells
In words: Jurkat cell binding.

The target of assay [2] is T1, human CD3 on cells (Jurkat cells, human …). The experiment in a line: Jurkat cell binding. This is another data set of the same source.
Assay [3] deals with T2, human CD20 on cells (human B cells; Raji, SU-DHL-8, SU-DHL-4, A3KAW, NAMALWA) (human, UniProt P11836 1-297).
T2 construct: whole, on cells
T2 sequence (looked up): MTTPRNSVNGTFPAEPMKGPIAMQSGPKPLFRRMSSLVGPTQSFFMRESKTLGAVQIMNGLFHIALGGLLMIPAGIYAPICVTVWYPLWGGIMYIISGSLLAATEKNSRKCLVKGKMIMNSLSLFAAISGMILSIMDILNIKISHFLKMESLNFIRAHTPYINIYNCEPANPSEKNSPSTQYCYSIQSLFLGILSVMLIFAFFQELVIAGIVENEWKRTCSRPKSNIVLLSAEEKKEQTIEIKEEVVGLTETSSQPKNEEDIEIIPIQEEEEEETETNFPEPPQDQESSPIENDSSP
The experiment in a line: flow cytometry, Raji cells. On the procedure: (§1) Raji, SU-DHL-8, SU-DHL-4, A3KAW and NAMALWA were B-cell lymphoma cell lines with various CD20 expression levels on cell surface. Briefly, the test antibodies were serial diluted and were incubated with the tumor cells on ice. After washing, the cells were subsequently incubated with the APC-labelled anti-human-Fc secondary antibody (BioLegend) on ice. The cells were then washed with PBS prior to analysis by the CytoFLEX flow cytometer (Beckman Coulter). The data was analyzed by FlowJo software.
Background: Flow cytometry measures light scatter and fluorescence of single cells or particles in a stream.

The target in assay [4] is T2, human CD20 on cells (human B cells; …). In words: flow cytometry, A3KAW cells. On the procedure:
as §1

Assay [5] has the same target. In words: flow cytometry, human B cells. The source says: (§2) Human and monkey PBMCs were isolated as mentioned above. Human B cells were further isolated from PBMCs using the EasySep™ Human B Cell Isolation Kit (Stem Cell Technologies). Monkey B cells were isolated from PBMCs using the Non-Human B Primate Cell Isolation Kit (Stem Cell Technologies). Purified human or monkey B cells were stained with the testing antibodies as the primary antibody and the APC-labelled anti-human-Fc antibody (BioLegend) as the secondary antibody. After washing, the cells were analyzed on the CytoFLEX flow cytometer (Beckman Coulter) and the data was analyzed by FlowJo software.

The target is the same in assay [6]. In words: flow cytometry, NAMALWA cells. On the procedure: as §1
For assay [7], the target named is T3, cynomolgus monkey CD20 on B cells (cynomolgus monkey, UniProt M4ZHZ6 1-297).
T3 construct: whole, on cells
T3 sequence: T2 sequence (looked up) with S25P, F31L, T51A, A157V, K217R, N226S, I227V, T239V
The experiment in a line: flow cytometry, monkey B cells.
From the text: as §2

The target of assay [8] is T2, human CD20 on cells (human B cells; …). In words: flow cytometry, SU-DHL-4 cells. On the procedure:
as §1

The target is the same in assay [9]. In words: flow cytometry, SU-DHL-8 cells. On the procedure: as §1
For assay [10], the target named is T1, human CD3 on cells (Jurkat cells, human …). In words: flow cytometry, human CD3+ T cells. The source says: (§3) Human PBMCs were freshly isolated from the blood of healthy donors by density gradient centrifugation using Histopaque-1077 (Sigma). Human CD3+ T cells were further isolated from PBMCs using the Human T Cell Enrichment Kit (Stem Cell Technologies). Monkey PBMCs were isolated from a naïve cynomolgus monkey by density gradient centrifugation using Histopaque-1077 (Sigma). Monkey CD3+ T cells were isolated from PBMCs using the Pan T Cell Isolation Kit Non-Human Primate (Miltenyi Biotec). Purified human or monkey CD3+ T cells were stained with the testing antibodies as the primary antibody and the APC-labelled anti-human-Fc antibody (BioLegend) as the secondary antibody. After washing, the cells were analyzed on the CytoFLEX flow cytometer (Beckman Coulter) and the data was analyzed by FlowJo software.

The target of assay [11] is T4, cynomolgus monkey CD3 on T cells (cynomolgus monkey, UniProt Q95LI5 22-198).
T4 construct: whole, on cells
T4 sequence (Q95LI5 22-198): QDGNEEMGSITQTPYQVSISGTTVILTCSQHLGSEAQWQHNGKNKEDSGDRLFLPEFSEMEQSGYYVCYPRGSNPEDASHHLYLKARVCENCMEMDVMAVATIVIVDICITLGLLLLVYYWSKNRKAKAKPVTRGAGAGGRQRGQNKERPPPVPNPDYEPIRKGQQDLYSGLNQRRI
The experiment in a line: flow cytometry, monkey CD3+ T cells.
From the text: as §3

The target of assay [12] is T1, human CD3 on cells (Jurkat cells, human …). The experiment in a line: flow cytometry, human CD4+ T cells. On the procedure:
(§4) Binding of CD20xCD3 bispecific or SAFE-bispecific antibodies to purified human CD3+ T cells was determined by flow cytometry. Briefly, human or monkey PBMC were freshly purified with Ficoll gradient solution—Histopaque 1077 (Sigma) from a healthy donor and CD3+ T cells were isolated using EasySep™ Human T cell Enrichment Kit (StemCell). Before staining, […] human Fc receptors on CD3+ T cells were blocked with Human Fc Block (BD). Then cells were incubated with fluorescence labeled antibody mixture (APC-Cy7 Mouse Anti-human CD3, PerCP-CyTM5.5 Anti-human CD4 and FITC anti-human CD8) for 15 minutes at 4° C. After washing the cells once with PBS supplemented with 2% FBS, cells were aliquoted to 96-well plates at 2×10⁵ cells per well, and cells were incubated with serial diluted bispecific, SAFE-bispecific or IgG1 isotype control antibodies for 30 minutes at 4° C. After washing the cells twice with PBS supplemented with 2% FBS, cell surface bound antibody was detected by incubating the cells with APC-labeled mouse anti-human IgG Fc secondary antibody for 30 minutes at 4° C. Cells were washed and detected by FACS using Cytoflex (BeckMan) and data was analyzed by FlowJo. The mean fluorescence (MFI) of each antibody binding to human or monkey CD4+ T cells and CD8+ T cell populations were fitted with four-parameter non-linear regression to get EC₅₀ values by GraphPad Prism software.

The target is the same in assay [13]. The experiment in a line: flow cytometry, human CD8+ T cells. On the procedure:
as §4

The target of assay [14] is T4, cynomolgus monkey CD3 on T cells. In words: flow cytometry, monkey CD4+ T cells. On the procedure: as §4
The target is the same in assay [15]. The experiment in a line: flow cytometry, monkey CD8+ T cells. On the procedure: as §4

T1 sequence (P07766 23-207): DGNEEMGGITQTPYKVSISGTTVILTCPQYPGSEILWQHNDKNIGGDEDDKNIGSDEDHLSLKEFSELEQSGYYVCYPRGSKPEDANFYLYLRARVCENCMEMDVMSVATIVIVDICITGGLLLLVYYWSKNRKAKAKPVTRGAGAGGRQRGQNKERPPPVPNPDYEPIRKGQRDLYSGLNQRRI

B1: TY24051 (bispecific antibody)
light: not shown
heavy: not shown
chain: QAVVTQEPSLTVSPGGTVTLTCGSSTGAVTTSNYANWVQQKPGQAPRGLIGGTNKRAPGVPARFSGSLLGGKAALTLSGAQPEDEAEYYCALWYSNLWVFGGGTKLTVLRGGGGSGGGGSGGGGSGGGGSEVQLVESGGGLVQPGGSLRLSCAASGFTFNTYAMNWVRQAPGKGLEWVGRIRSKYNNYATYYADSVKGRFTISRDDSKNTLYLQMNSLRAEDTAVYYCVRHGNFGNSYVSWFAYWGQGTLVTVSSEPKSSDKTHTCPPCPAPELLGGPSVFLFPPKPKDTLMISRTPEVTCVVVDVSHEDPEVKFNWYVDGVEVHNAKTKPREEQYASTYRVVSVLTVLHQDWLNGKEYKCKVSNKALPAPIEKTISKAKGQPREPQVYTDPPSRDELTKNQVSLTCLVDGFYPSDIAVEWESNGQPENCYKTTPPVLDSDGSFFLYSKLTVDKSRWQQGNVFSCSVMHEALHNHYTQDSLSLSPGK
notes: also called parental HER2xCD3 bispecific antibody; anti-CD3 variant TAC2225
With B1, the half-maximal effective concentration (EC50) (as a rule, the concentration giving half of the maximal effect) in [1] was 15.3 nM and 10.2 nM.

B2: TY25023 (bispecific antibody, human IgG1, kappa, N297A)
light: not shown
heavy: not shown
chain: EAVVTQEPSLTVSPGGTVTLTCGSSTGAVTTSNYPNWVQQKPGQAPRGLIGGTNKRAPGTPARFSGSLLGGKAALTLSGAQPEDEAEYYCALWYSDLWVFGGGTKLTVLGGGGSGGGGSGGGGSGGGGSEVQLVESGGGLVQPGGSLRLSCAASGFTFSTYAINWVRQAPGKGLEWVSRIRSKYNNYATYYAESVKDRFTISRDDSKNTLYLQINSLRAEDTAVYYCVRHGNFGTSYVSWFAYWGQGTLVTVSSEPKSSDKTHTCPPCPAPELLGGPSVFLFPPKPKDTLMISRTPEVTCVVVDVSHEDPEVKFNWYVDGVEVHNAKTKPREEQYASTYRVVSVLTVLHQDWLNGKEYKCKVSNKALPAPIEKTISKAKGQPREPQVYTDPPSRDELTKNQVSLTCLVDGFYPSDIAVEWESNGQPENCYKTTPPVLDSDGSFFLYSKLTVDKSRWQQGNVFSCSVMHEALHNHYTQDSLSLSPGK
notes: also called anti-CD3 variant TY24742
Turning to B2, in assay [1], the EC50 is > 1000 nM and 480 nM.

B3: TY25524 (bispecific antibody, human IgG1, kappa, N297A)
light: not shown
heavy: not shown
chain: B2 chain with P35A, N54K, K55F, T60I, L97H, S178G, D197G, V228A
In turn, B3 came in with an EC50 in [2] of 260 nM.

B4: TY25525 (bispecific antibody, human IgG1, kappa, N297A)
light: not shown
heavy: not shown
chain: B2 chain with E1Q, T60V, D96N, Q142K, T160S, S178G, D197G, T235N, W240Y, F241W
On to B4, for which the EC50 in [2] was 6.88 nM.

B5: TAC2392 (bispecific antibody)
light: QIVLTQSPSSLSASVGDRVTITCRASSSVSYIHWFQQKPGKSPKPLIYATSNLASGVPVRFSGSGSGTDYTLTISSLQPEDFATYYCQQWTSNPPTFGGGTKVEIKRTVAAPSVFIFPPSDEQLKSGTASVVCLLNNFYPREAKVQWKVDNALQSGNSQESVTEQDSKDSTYSLSSTLTLSKADYEKHKVYACEVTHQGLSSPVTKSFNRGEC
heavy: QVQLVQSGAEVKKPGASVKVSCKASGYTFTSYNMHWVRQAPGQGLEWMGAIYPGNGDTSYNQKFQGRVTITADKSISTAYMELSSLRSEDTAVYYCARSTYYGGDWYFNVWGAGTLVTVSSASTKGPSVFPLAPSSKSTSGGTAALGCLVKDYFPEPVTVSWNSGALTSGVHTFPAVLQSSGLYSLSSVVTVPSSSLGTQTYICNVNHKPSDTKVDKKVEPKSCDKTHTCPPCPAPPVAGPSVFLFPPKPKDTLMISRTPEVTCVVVDVKHEDPEVKFNWYVDGVEVHNAKTKPREEEYNSTYRVVSVLTVLHQDWLNGKEYKCKVSNKALPAPIEKTISKAKGQPREPQVYTLPPSREEMTKNQVSLTCDVSGFYPSDIAVEWESDGQPENNYKTTPPVLDSDGSFFLYSKLTVDKSRWEQGDVFSCSVMHEALHNHYTQKSLSLSPGK
chain: not shown
notes: also called CD20xCD3 bispecific antibody
As to B5, the EC50 in assay [3] was 135 nM; in [4], 487 nM; in [5] it was 12.6 nM; in assay [6], 592 nM; in assay [7], 83.8 nM; in [8], 26.9 nM. Moreover, the EC50 in [9] is 48.6 nM; in [10] it was 6.92 nM; in [11] it was 26.6 nM; in assay [12] it was 62.1 nM; in assay [13] it was 37.2 nM; in assay [14] it was 120 nM. Moreover, in [15], the EC50 was 58.6 nM. In addition, the “Max MFI” value in [3] is 22000 MFI; in assay [4], 675000 MFI; in assay [6], 447000 MFI; in assay [8], 2.29e+06 MFI; in [9], 3640 MFI. Besides, the “max MFI” value in assay [5] was 32300 MFI; in assay [7] it was 6020 MFI; in assay [10] it was 6490 MFI; in [11], 3200 MFI.

For the origin of these results see patent US20250326860A1 (ADAGENE PTE, published 2025).
